The values below come from article PMC2944812.

This assay addresses Human C1q (human) (UniProt P02745). Description: flow cytometry on cells; Washed TRAP-activated human platelets incubated with or without purified C1q (10 ug/mL), washed, then HAGG (0-10 ug/mL) for 30 min at RT; HAGG detected with rabbit anti-human IgG (Fab2)-FITC; C1q held on the platelet surface.
Chain of UniProt P02745 (P02745 23-245, chain 1 of 3): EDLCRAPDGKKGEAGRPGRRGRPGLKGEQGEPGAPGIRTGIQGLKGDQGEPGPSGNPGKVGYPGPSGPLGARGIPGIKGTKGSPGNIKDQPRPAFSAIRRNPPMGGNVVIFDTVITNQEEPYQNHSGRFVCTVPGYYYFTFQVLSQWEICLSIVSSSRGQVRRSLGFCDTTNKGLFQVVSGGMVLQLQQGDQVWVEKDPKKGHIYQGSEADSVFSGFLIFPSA
Chain of UniProt P02745 (P02746 28-253, chain 2 of 3, further chain): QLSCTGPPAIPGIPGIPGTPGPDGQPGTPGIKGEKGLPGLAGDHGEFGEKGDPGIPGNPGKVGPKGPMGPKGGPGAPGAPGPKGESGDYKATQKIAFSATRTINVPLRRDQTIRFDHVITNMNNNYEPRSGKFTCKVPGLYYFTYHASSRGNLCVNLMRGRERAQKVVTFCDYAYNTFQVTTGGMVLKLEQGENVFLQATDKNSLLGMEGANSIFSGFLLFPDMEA
Chain of UniProt P02745 (P02747 29-245, chain 3 of 3, further chain): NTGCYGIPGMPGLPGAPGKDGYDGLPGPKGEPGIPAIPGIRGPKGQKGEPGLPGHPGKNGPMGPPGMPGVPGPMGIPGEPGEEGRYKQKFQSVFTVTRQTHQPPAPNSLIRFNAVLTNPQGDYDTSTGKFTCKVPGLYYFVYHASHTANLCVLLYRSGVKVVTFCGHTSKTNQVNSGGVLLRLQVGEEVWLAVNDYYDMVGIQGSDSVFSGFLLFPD

“heat-aggregated gamma globulin (natural protein)”: the fold increase of HAGG binding to activated platelets with C1q against without C1q was 2 fold.
